Laboratory results from patent publication US20240376214A1, “ANTI-C-MET ANTIBODIES AND ANTIBODY-DRUG CONJUGATES” (BYONDIS B.V., priority 2021, published 2024).
Changes are numbered by the printed parent chain.

B1: ADC3a (antibody, human IgG1, kappa, V domains shown)
VH: QVQLVQSGAEVKKPGASVKVSCKASGYTFTDYYLNWVRQACGQGLEWMGLIFPGNDKTEYSEKFKGRVTLTTDTSISTAYMELSSLTSDDTALYYCSGGDYGGFVYWGQGTLVTVSS
VL: DIQLTQSPSSLSASVGDRVTITCGASENIYGALNWYQQKPGKAPKLLIYGATNLADGVPSRFSGSGSGTDFTLTISSLQPEDFATYYCQNVLSSPLTFGPGTKVDIKR
modifications: vc-seco-DUBA linker-drug on the engineered cysteine at HC position 41 (Kabat); DAR 1.9
B2: ADC3d (antibody, human IgG1, kappa, V domains shown)
VH: B1 VH with V5Q, Q6E, L70M, T72R, I76T, A79V, T87R, D89E, L93V
VL: B1 VL
modifications: vc-seco-DUBA linker-drug on the engineered cysteine at HC position 41 (Kabat); DAR 1.8
B3: ADC3c (antibody, human IgG1, kappa, V domains shown)
VH: B1 VH
VL: B1 VL with L4M, F83V, P100S, V104L, D105E
modifications: vc-seco-DUBA linker-drug on the engineered cysteine at HC position 41 (Kabat); DAR 1.8
B4: ADC3e (antibody, human IgG1, kappa, V domains shown)
VH: B1 VH with V5Q, Q6E, L70M, T72R, I76T, A79V, T87R, D89E, L93V
VL: B1 VL with L4M, F83V, P100S, V104L, D105E
modifications: vc-seco-DUBA linker-drug on the engineered cysteine at HC position 41 (Kabat); DAR 1.9
B5: ADC1a (antibody, human IgG1, kappa, V domains shown)
VH: QVQLVQSGAEVKKPGASVKVSCKASGYIFTDYFMNWVRQACGQGLEWMGRVNPKNGDITYNQKFRGRVSLTKDTSINTAYMELSGLTSDDTAIYYCAYDGYYDGMDFWGQGTSVTVSS
VL: ELVMTQSPSSLSASVGDRVTITCRANSSVSSNFLHWYQQKPGKAPKLLISSTSNLAFGVPSRFSGTGSGTDFSLTISSLQPEDFAIYYCHQYSGHPFTFGQGTKLEIKR
modifications: vc-seco-DUBA linker-drug on the engineered cysteine at HC position 41 (Kabat); DAR 1.7
B6: ADC1 (antibody, human IgG1, kappa, V domains shown)
VH: EVQLQQSGPELLKPGASVKMSCKASGYIFTDYFMNWVKQSCGKSLEWIGRVNPKNGDITYNQKFRGKATLTVDKSLTTAYMQLNSLTSEDSAVYFCAYDGYYDGMDFWGQGTSVTVSS
VL: ENVLTQSPAIMSASPGEKVTMTCRANSSVSSNFLHWYQQKSGASPKLWISSTSNLAFGVPPRFSGSGSGTSYSLTISSVEAEDAATYYCHQYSGHPFTFGSGTKLEIKR
modifications: vc-seco-DUBA linker-drug on the engineered cysteine at HC position 41 (Kabat); DAR 1.5
B7: ADC3 (antibody, human IgG1, kappa, V domains shown)
VH: QIQLQQSGPELVKPGASVKISCKASGYTFTDYYLNWVKQRCGQGLEWIGLIFPGNDKTEYSEKFKGKATLTVDTSSSTAYIQLSRLSSEDSAIYFCSGGDYGGFVYWGQGTLVTVSS
VL: DIQMTQSPTSLSASVGETVTITCGASENIYGALNWYQRKQGKSPQLLIYGATNLADGMSSRFSGSGSGRQFSLKINSLHPDDVATYFCQNVLSSPLTFGSGTKLEIKR
modifications: vc-seco-DUBA linker-drug on the engineered cysteine at HC position 41 (Kabat); DAR 1.1
B8: ADC2a (antibody, human IgG1, kappa, V domains shown)
VH: QVQLVQSGAELRKPGSSVKVSCRASGYVFPDYEMHWVRQACGQGLEWMGAFDPETGDTTYNQNFKGRVTIAADKSTSTAYMELRSLRSEDTAIYYCARDYKYLYYYAMDNWGQGTMVTVSS
VL: EIVLTQSPSLLSASIGDRVTIPCTASSSITSSYLHWYQQKPGKAPKLLIYSTTNLASGVPSRFSGSGSGTEFTLTISSLQPEDFATYYCHQYRRSPLTFGGGTKLEIKR
modifications: vc-seco-DUBA linker-drug on the engineered cysteine at HC position 41 (Kabat); DAR 1.7
B9: ADC2c (antibody, human IgG1, kappa, V domains shown)
VH: B8 VH with L11V, R12K, R23K, A71T, R84S, I93V, M116T
VL: B8 VL
modifications: vc-seco-DUBA linker-drug on the engineered cysteine at HC position 41 (Kabat); DAR 1.7
B10: ADC2b (antibody, human IgG1, kappa, V domains shown)
VH: B8 VH with L11V, R12K, R23K, A71T, R84S, I93V, M116T
VL: B8 VL with E1D, V3Q, L4M, L10S, I15V, P22T, E71D
modifications: vc-seco-DUBA linker-drug on the engineered cysteine at HC position 41 (Kabat); DAR 1.7
B11: ADC2 (antibody, human IgG1, kappa, V domains shown)
VH: QVQLQQSGAELVRPGASVKLSCKASGYVFPDYEMHWVKQTCVHGLEWIGAFDPETGDTTYNQNFKGKATLTADKASSTAYMDLRSLTSGDSAVYYCARDYKYLYYYAMDNWGQGTSVTVSS
VL: QIVLTQSPAIMSASLGERVTMTCTASSSITSSYLHWYQQKPGSSPKLWIYSTTNLASGVPGRFSGSGSGTSFSLTISSMEAEDAATYYCHQYRRSPLTFGAGTKLELKR
modifications: vc-seco-DUBA linker-drug on the engineered cysteine at HC position 41 (Kabat); DAR 1.7

The binders below were run against human c-Met (HGFR), full length, on the cell surface (human, UniProt P08581 25-1390) (assay: cell-based or functional assay).
Chain of human c-Met (HGFR), full length, on the cell surface (P08581 25-1390 limits assumed): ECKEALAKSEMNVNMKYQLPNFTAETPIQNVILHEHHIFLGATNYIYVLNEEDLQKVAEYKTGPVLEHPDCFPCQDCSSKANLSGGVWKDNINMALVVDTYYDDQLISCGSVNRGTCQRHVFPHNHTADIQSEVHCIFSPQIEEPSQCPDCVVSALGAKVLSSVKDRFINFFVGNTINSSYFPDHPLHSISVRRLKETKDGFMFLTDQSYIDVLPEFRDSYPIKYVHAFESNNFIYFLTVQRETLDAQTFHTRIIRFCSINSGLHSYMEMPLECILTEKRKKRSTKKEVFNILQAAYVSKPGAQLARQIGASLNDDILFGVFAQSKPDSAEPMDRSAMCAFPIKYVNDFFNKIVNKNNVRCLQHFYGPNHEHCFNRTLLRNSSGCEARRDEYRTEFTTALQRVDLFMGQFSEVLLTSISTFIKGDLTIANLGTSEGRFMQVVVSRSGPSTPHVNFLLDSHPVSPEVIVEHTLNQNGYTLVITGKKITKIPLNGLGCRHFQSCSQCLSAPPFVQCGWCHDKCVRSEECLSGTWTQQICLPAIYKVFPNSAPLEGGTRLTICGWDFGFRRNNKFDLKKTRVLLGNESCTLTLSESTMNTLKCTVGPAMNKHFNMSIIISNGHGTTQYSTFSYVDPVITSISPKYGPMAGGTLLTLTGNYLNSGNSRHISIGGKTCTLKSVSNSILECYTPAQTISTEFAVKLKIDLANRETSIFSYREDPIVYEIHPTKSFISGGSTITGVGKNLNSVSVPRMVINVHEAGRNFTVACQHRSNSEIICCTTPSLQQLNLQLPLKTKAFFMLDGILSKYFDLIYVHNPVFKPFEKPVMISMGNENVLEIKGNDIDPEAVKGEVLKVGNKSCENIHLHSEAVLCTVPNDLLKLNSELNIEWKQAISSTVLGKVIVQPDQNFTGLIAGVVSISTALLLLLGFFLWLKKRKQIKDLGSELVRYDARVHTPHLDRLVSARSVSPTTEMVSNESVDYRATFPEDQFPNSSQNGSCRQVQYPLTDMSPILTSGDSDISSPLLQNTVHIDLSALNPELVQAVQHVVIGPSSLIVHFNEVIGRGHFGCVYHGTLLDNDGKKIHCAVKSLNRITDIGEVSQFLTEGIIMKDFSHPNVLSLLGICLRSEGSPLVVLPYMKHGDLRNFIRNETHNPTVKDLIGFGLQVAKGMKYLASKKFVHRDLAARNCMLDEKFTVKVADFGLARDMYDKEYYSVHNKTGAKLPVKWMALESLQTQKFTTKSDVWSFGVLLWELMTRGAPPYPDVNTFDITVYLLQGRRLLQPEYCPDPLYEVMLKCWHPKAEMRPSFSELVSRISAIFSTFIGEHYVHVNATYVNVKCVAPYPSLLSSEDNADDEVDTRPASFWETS

Binder | Efficacy (%), in vitro cytotoxicity, MKN-45, -HGF [%] | Efficacy (%), in vitro cytotoxicity, NCI-H596, +HGF [%] | Efficacy (%), in vitro cytotoxicity, NCI-H596, -HGF [%] | Efficacy (%), in vitro cytotoxicity, PC-3, +HGF [%] | Efficacy (%), in vitro cytotoxicity, PC-3, -HGF [%] | IC50 1, in vitro cytotoxicity, PC-3, -HGF [nM] | IC50 2, in vitro cytotoxicity, PC-3, -HGF [nM] | IC50, in vitro cytotoxicity, MKN-45, -HGF [nM] | IC50, in vitro cytotoxicity, NCI-H596, +HGF [nM] | IC50, in vitro cytotoxicity, NCI-H596, -HGF [nM]
B1 | 85 | 43 | 3 | 72 | 73 | 0.05 | 5.77 | 0.55 | 2.14 | > 10
B2 | 82 | 41 | 5 | 73 | 74 | 0.04 | 54 | 0.5 | 2.17 | > 10
B3 | 84 | 44 | 10 | 72 | 73 | 0.04 | 112 | 0.41 | 1.89 | > 10
B4 | 81 | 44 | 11 | 74 | 74 | 0.04 | 541 | 0.46 | 2.52 | > 10
B5 | 84 | 40 | 14 | 77 | 78 | 0.6 | 224 | 0.42 | > 10 | > 10
B6 | 72 | 29 | 16 | 42 | 41 | – | – | 0.73 | 0.38 | > 10
B7 | 50 | 53 | 16 | 30 | 24 | – | – | 0.77 | 1.86 | > 10
B8 | 86 | 26 | 8 | 76 | 77 | 0.06 | 40 | 0.44 | > 10 | > 10
B9 | 84 | 32 | 3 | 75 | 76 | 0.08 | 58 | 0.41 | > 10 | > 10
B10 | 84 | 34 | 10 | 75 | 77 | 0.05 | 100 | 0.4 | > 10 | > 10
B11 | 76 | 32 | 6 | 69 | 69 | 0.05 | 84 | 0.44 | > 10 | > 10

Same assay, conditions: not given

Binder | IC50, in vitro cytotoxicity, PC-3, +HGF [nM] | IC50, in vitro cytotoxicity, PC-3, -HGF [nM]
B1 | ~0.71 | –
B2 | ~2.49 | –
B3 | ~1.85 | –
B4 | ~2.86 | –
B5 | ~1.22 | –
B6 | 0.185 | 0.069
B7 | 0.224 | 0.076
B8 | ~0.74 | –
B9 | ~1.97 | –
B10 | ~2.46 | –
B11 | ~10 | –
